The values below come from paper PMC3162391 (The Journal of Biological Chemistry, 2011).

The data set deals with the molecule itself. The experiment in a line: FRET or BRET.

B1: CD5 BRET pair (CD5Luc and CD5GFP) (receptor, human, UniProt P06127 25-495, looked up)
chain: RLSWYDPDFQARLTRSNSKCQGQLEVYLKDGWHMVCSQSWGRSSKQWEDPSQASKVCQRLNCGVPLSLGPFLVTYTPQSSIICYGQLGSFSNCSHSRNDMCHSLGLTCLEPQKTTPPTTRPPPTTTPEPTAPPRLQLVAQSGGQHCAGVVEFYSGSLGGTISYEAQDKTQDLENFLCNNLQCGSFLKHLPETEAGRAQDPGEPREHQPLPIQWKIQNSSCTSLEHCFRKIKPQKSGRVLALLCSGFQPKVQSRLVGGSSICEGTVEVRQGAQWAALCDSSSARSSLRWEEVCREQQCGSVNSYRVLDAGDPTSRGLFCPHQKLSQCHELWERNSYCKKVFVTCQDPNPAGLAAGTVASIILALVLLVVLLVVCGPLAYKKLVKKFRQKKQRQWIGPTGMNQNMSFHRNHTATVRSHAENPTASHVDNEYSQPPRNSHLSAYPALEGALHRSSMQPDNSSDSDYDLHGAQRL
As for B1, the stoichiometry N (usually the number of molecules, sites or subunits per partner or assembly) was 2.
